Test results published in article PMC3035117 (ChemMedChem, 2010).
Where two headings read alike, the source gives them in different places. Square brackets hold non-standard residues; d marks the D form. Ends that are not written are not given here. Ftp = ferrocenyl-triazole-Pro (made from azidoproline); Cit = NC(=O)NCCC[C@H](N)C(=O)O

Legend:
[1] = biological target: T1, HIV-1 YU-2 gp120 (HIV-1 (YU-2), UniProt P35961 32-498); experiment: ELISA
[2] = biological target: T1, HIV-1 YU-2 gp120; experiment: ITC
[3] = biological target: T1, HIV-1 YU-2 gp120; experiment: ELISA; remark: listed apart in the source

Binder | IC50 [1] [nM] | dH [2] [kcal/mol] | IC50 [3] [nM]
NNI[Ftp]W-NH2 [UM17] | 600 ± 50 | -13.2 | 4000 ± 170
[Cit]NNI[Ftp]WS [UM24] | – | -16.7 | –
INNI[Ftp]W-NH2 [UM15] | – | -16.6 | –
NI[Ftp]WS-NH2 [UM41] | – | -6.1 | –
